According to paper PMC10967246, “A novel tetratricopeptide-repeat protein, TTP1, forms complexes with glutamyl-tRNA reductase and protochlorophyllide oxidoreductase during tetrapyrrole biosynthesis” (Journal of Experimental Botany, 2023):

What was measured:
Experiment in all cases: MST; 200 nM RED-NHS-labelled 6×His–TTP1 constant, decreasing amounts of the binding partner; phosphate-buffered saline; Monolith NT.115, standard capillaries, excitation 100%, MST power 40%; Kd fit for 1:1 stoichiometry
Settings in all cases: both partners purified
[1] = target: T1, recombinant His-tagged GluTR-binding protein (GBP) (Arabidopsis, UniProt Q9LU39 43-317)
T1 construct: source: recombinant, His-tagged
T1 sequence (looked up): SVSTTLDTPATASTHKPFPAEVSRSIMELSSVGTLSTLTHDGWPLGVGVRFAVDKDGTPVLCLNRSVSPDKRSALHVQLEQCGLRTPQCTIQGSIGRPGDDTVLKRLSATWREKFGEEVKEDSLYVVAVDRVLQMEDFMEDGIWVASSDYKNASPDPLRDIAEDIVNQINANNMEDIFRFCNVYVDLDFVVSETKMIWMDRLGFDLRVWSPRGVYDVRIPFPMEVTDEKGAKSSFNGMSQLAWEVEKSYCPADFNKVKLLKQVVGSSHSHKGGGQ

[2] = target: T2, recombinant His-tagged full-length GluTR1 (Arabidopsis, UniProt P42804 62-543)
T2 construct: glutamyl-tRNA reductase 1 (HEMA1), Arabidopsis; called full-length GluTR1 in the legend; source: recombinant, His-tagged

[3] = target: T3, recombinant His-tagged PORB (Arabidopsis, UniProt P21218 67-401)
T3 construct: protochlorophyllide oxidoreductase B, Arabidopsis; source: recombinant, His-tagged
T3 sequence (looked up): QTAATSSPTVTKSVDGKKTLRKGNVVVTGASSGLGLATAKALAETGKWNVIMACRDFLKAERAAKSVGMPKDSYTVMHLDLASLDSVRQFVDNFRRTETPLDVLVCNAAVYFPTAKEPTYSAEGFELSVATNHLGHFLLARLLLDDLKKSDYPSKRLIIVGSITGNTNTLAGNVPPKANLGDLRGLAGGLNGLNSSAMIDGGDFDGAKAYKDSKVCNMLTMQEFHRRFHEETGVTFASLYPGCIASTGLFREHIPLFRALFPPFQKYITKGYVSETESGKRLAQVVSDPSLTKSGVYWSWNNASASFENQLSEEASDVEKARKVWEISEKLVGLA

[4] = target: T4, recombinant His-tagged PORC (Arabidopsis, UniProt O48741 68-401)
T4 construct: protochlorophyllide oxidoreductase C, Arabidopsis; source: recombinant, His-tagged
T4 sequence (looked up): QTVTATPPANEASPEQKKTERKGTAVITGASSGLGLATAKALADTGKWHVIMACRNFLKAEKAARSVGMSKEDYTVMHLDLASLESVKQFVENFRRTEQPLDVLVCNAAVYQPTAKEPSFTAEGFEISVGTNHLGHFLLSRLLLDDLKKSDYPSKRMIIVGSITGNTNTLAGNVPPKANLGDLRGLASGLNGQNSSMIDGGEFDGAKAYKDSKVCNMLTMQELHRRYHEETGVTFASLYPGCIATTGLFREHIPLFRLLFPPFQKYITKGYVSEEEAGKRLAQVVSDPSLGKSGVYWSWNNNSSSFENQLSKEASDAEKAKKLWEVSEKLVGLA

Measured: Kd

B1: recombinant 6×His-tagged TTP1, RED-NHS labelled (natural protein)
chain: MLMTLAATTSVSFNSKLLLFRIRCSDSNPKRGFGSKKEEKDPALQQRKSSSKQSVSVPRKAPGLNTQFEGKSGRSFDIDFDERLENIRRSALEQKKTEVVKEFGPIDYDAPVKSDQKTIGLGTKVGVGIAVVVFGLVFALGDFLPTGSDSPTKNTTVVKNQISEEEKATLQQRLKEFETTLNGTPQDQAALEGAAVTLTELGDYSRAAAFLEKLAKERPTDPDVFRLLGEVNYELNNYEGSIAAYKISEKVSKGIDLEVTRGLMNAYLAAKKPDEAVKFLLDTRERLNTKKTSTTDSVTDETNLDPIQVELLLGKAYSDWGHISDAIAVYDQLISAHPEDFRGYLAKGIILRENGSRGDAERMFIQARFFAPNKAKALVDRYSKL
modifications: labelled with the RED-NHS Protein Labeling Kit, degree of labeling approximately 1.0
< 1000 nM: all assays above
